Drawing on a protein production outcome set (Wang et al. 2014), this text covers protein production for 23 sequences.
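Also: failed if final PepcDB status was selected cloned or expressed and not failed if soluble or beyond.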

A short description of this data set: label from the status in PepcDB records.
Consider “MKLYIYDHCPFCVKARMIFGLKNIPVELNVLQNDDEATPTRMIGQKMVPILQKDDSRYLPESMDIVHYVDNLDGKPLLTGKRNPAIEEWLRKVNGYVNQLLLPRFAKSAFDEFSTPAARQYFIRKKEASSGSFDNHLAHSAGLIKKIGDDLRLLDKLIVQPNAVNGELSEDDIHLFPLLRNLTLVAGIHWPTKVADYRDNMAKQTQINLLSSMAI”, for which the protein production entry is “not failed”.

“MSVEIKRVDKHHCLDLVEIFIELEQYYFGDKAASEQDLANYLSHQVFSEHSGVKVIAAVEHDKVLGFATYTIMFPAPKLSGQMYMKDLFVSSSAPGKGIGLQLMKHLATIAITYNCQRLDWTAESTNPTARKFYKSIGASLIREKEYYRFEGNGLNKLAKSL”: the protein production result is “not failed”.

Consider “MRQSCLMTEQLQDIKTLIEQGDTERAIHALTNFIRNDAHVNDEPYYLLGNAYRKMGDWQQALNNYLEAIERNPESPAVSARNMIMNILNFYNKDMYNQ”, for which the protein production result is reported as “failed”.

As for “AIASQFDPDKFKQEQKARWNQGARSTWTLWKQTQVEDTPAKFFLGLVPIRPGVKVLDLACGSGETSLQVAQLVSSHLPSDSKDAKIVCVDISEEMLRVLSQRAQELGLSSVVETCCEDAENINFGTHYFDMVMSQFGVMFLPHLPEDLANIRKMMKPGSLFCCVVWGEEKDCHIFYAARSVVSPPPPPPGTPVSYGTKEKVMEALRKAEFSDVKAVEFQVVHETKDAEEYITLMSGVNQWLEKSLGEKGSGPWQKLVEYCNNSYRTSRGTLQFPNVCVGITAIA”, the protein production result is given as “failed”.

On to “MRVLVIGATGHVGTYLVPRLVEAGHDVVTISRGAARPYTADRAWASVDQRQMDRVEMERKGDFGPAMRALNADIVIDMICFTLESAEQLVTALSGYVGHFLHTGTIWTHGYPVAVPTREEAPKSPFGDYGIQKAAIETYLLQQARLRGFPATIIHPGHIVGRGWAPLNPAGNFNLQVFSTLARGEALALPNFGLETVHHVHADDVAAMFMDAIANRNASLGESFHAVSEQALTLRGYAESMSRWFGRDPKLTFAPFDAWARGQAAEDAEATWEHIARSPNCSIAKARRLLGYGPRYTSLQAVQESVGWLLGQGRIKS”, for which the protein production entry is “failed”.

“MRQYPRWYYDEFKQSGADYADIEEVNTYDLRMQNLRNIENESNRIRELLKLKKSDVVLEIGTGTGELALNISAHCKQVIAIDVSKMMINFARRKAESQNKTNIQFYNAGFLTYENHDELFDVIVTQLALHHLPDYWKMMALRRIYGMLKEEGKFYLHDVVFPSSIQNYDSYFDKIITDLEISAGDKIAEETEIHIKEEFSTLDWVMEGLLTGVGFYIEYIKYDGFMASYICKK”: the protein production entry was “failed”.

For “MSASAVHSLWTTAADPISKIDAPKIEYGQLSPTLIVIGAALVGVLVEAFVPRKSRYYAQVFVSVVALAAAFAAVVALAAGGYGTTKAHIAAMGAIAVDGPALFLQGTILLAGLLGVFTFAERRLDPEVHGNRVDSFAAQAASVPGSDSEKAAVKAGFTTTEVFPLLLFAVGGMLIFPSANDLLTLFVALEVFSLPLYLLCAVARRKRLMSQEAAVKYFLLGAFASAFTLFGIALLYGYAGSMSYATIAQVVDGTVQNVDPALAGTMGNDALLLVGAAMLVMGLLFKVGAVPFHMWTPDVYQGAPTPVTGFMAAATKVAAFGALLRLLYVVLPGLRWDWRPVMWAVAIVTMLGGAIVAITQTDIKRLLAYSSIAHAGFILAGVIATTPDGVSSVLFYLGAYSFVTIGAFAVVTLVRDAGGEATHLSKWAGLGRRSPLVAAVFAVFLLAFAGIPLTSGFAGKFAVFKAAAEGGAAPLVVVGVISSAIAAFFYIRVIVLMFFSEPRPEGPTVAVPSPLTTTVIGVGVVVTLVLGVAPQYFLDLAG”, the protein production result is recorded as “failed”.

Take “MALPHVVSSPSSTSLSPSFKSKPPFHSLRSLSPTVDNRRRCKLNSSFRCSSSSFSEKHHNAKSPKSDDIVELPLFPLPLVLFPGAILPLQIFEFRYRIMMHTLLQSDLRFGVVYSDSVSGSAAEVGCVGEVVKHERLVDDRFFLVCKGQERFRVTNVVRTKPYLVGEVTWLEDRPSGEENLDSLANEVEVLMKEVIRLSNRLNGKAEKEVQDLRRNQFPTPFSFFVGSTFEGAPREQQALLELEDTAARLKRERETLRNTLNYLTAASAVKDVFPSSS”: the protein production result was “failed”.

On to “MRRNRPGARHCPAFSGYPDPGFPRGSRRSGSSRRGKSRIMDWLKSLPGIGPLIARLMTTHAWRSYERLDRVKWTQLAAAMTFISFVALFPLLTVAAAIGAAALSEEQQKTLQDKLAEQVPGISDQLDIHALVQNAGTVGVIAGAVLLFTGIGWVGAMRDCLRAVWELDDDEENPFLRKLKDGGVLLGLGGAVLVTLATSTVASAMVGWTADRLGIERDGWGSVLLHITAFLVAVLADFLLLLYVLTLLPGVEPTRRRLVVAALIGAVGFELLKLLLSGYIQGVASKSMYGAFGVPVALLLWINFTSKLLLFCAAWTATPSDGPAEEEVSGASDDVPDRAAASGG”, for which the protein production entry was “failed”.

For “MAAAGAPDGMEEPSMDTEAEAVATEAPARPLNCVEAEAVVGTAAEDSCDARGNLQPAPAQPPGDPAAQASVSNGEDAGGGAGRELVDLKIIWNKTKHDVKVPLDSTGSELKQKIHSITGLPPAMQKVMYKGLVPEDKTLREIKVTSGAKIMVVGSTINDVLAVNTPKDAAQQDAKAEESKKEPLCRQKQHRKVLDKGKPEDVMPSVKGAQERLPTVPLSGMYNKSGGKVRLTFKLEQDQLWIGTKERTEKLPMGSIKNVVSEPIEGHEDYHMMAFQLGPTEASYYWVYWVPTQYVDAIKDTVLGKWQYF”, the protein production entry is reported as “failed”.

For “MSSKQWRWIPNALTFLRMVLIVPFAGALLEGNYRLSLVIFFVAALTDAFDGFLARHFNWRSRLGAVADPLADKALLISAYLMLTITGVLPLWLFALVLGRDLVIVCGGLAFHYGIGRFDMEPSIPGKINTFVQILVALAIIILLAGLPMQPWVIDTGIWLVAVSALVSGGHYVAVWSLRAWRAKRS”, the protein production entry is “failed”.

With “MDATMHLFREKSSIGRLNLARVGLLDCIFGVRLNVEYKKTVEIFDCAGHNHRSGGIRNHRPTNSQGNSHKIKWKNLLLAPYTLVHVLVPPDLNKTCCDCGVYALKYIECHFMGLSLDMLDDVNIKDARLRIAVDLWKAAFDPVFIDRMTKYKPPKINSEIIDINLSVKLLKLNLIDNILEGPLSESITRSKTLLELDNMLEPNCI”, the protein production entry is reported as “failed”.

On to “MHMKTVRQERLKSIVRILERSKEPVSGAQLAEELSVSRQVIVQDIAYLRSLGYNIVATPRGYVLAGGKSGVSRLVAVKHAPEEIKEELLCVVRNGGRIVDVIVEHPVYGEIRGIIDVSSEEEVLKFVNLMEMAKTEPLLTLSGGVHLHTIEAPDEETMERIMRELKKKGFLIEEG”, for which the protein production result is on record as “not failed”.

Regarding “MFRWFIAAIEDVYLPVPVMHLLTSNFAPFPWQHLDYTVVQLTKQDSNCLQALFERCTDFFNLTTGQPPASTAAEAEFVDVPAGKTPEDLHVFGLHHPQKGLIGTIIAVQDYPEAATWWIGTMLIDPVYRSQGVGSAFYQAFERWLAAQGVTGIELCAIASNTSGRAFWQRMGFEEIRQTPSRSFGQRHHIAHVYRRCLILLTRRAEFESYDPLNSLNAYLCKTEVINWQHPDIQALAQQLAAGHETPVVIAQACFEWVRDAIRHSVDYQMNPVTWRASDVLQHKTGYCFAKSHLLAALLRANQIPAGFCYQRLSIDDRGTPYSLHGFNAVYLPITGWHRVDPRGNKPGIDTKFSPPIEHLAYQPKLDEEADFSAILAEPLAIVVTALQTHATWDALLHHLPDMTPNTATTIGLYCY”, the protein production entry was “failed”.

In the case of “MQFKAEARRNKLMGLWVAEVLGKSGDEANAYAAEVVKADFEEAGHEDVMRKVLGDLDGKRPEAEVRAKYEGLMAVAKAQLMDEL”, the protein production entry is reported as “not failed”.

As to “MENVSDDRFAEMVWEAVSGGATLKDVHGIPQDMMEGLYAHAYDFYHKGRLDEAETFFRFLCIYDFYNPDYIMGLAAVCQLKKQFQKAVDLYAVAFALSKNDYRPVFFTGQCQLFMRKAAKARQCFELVCEQSGLEHHHHHH”, the protein production entry is “failed”.

Regarding “MFLAGAFIAVGSLYAQSSDAEWQAGVAKLKETIQTNPAQANEEAEQLIKGKNKKNVELLVAIGEVYLKAGKLPEAQEYAALAKKVNGKSALASVLEGDIAFEQKNAGLASQKYEEAIYFDPSCTEAYLRYADIYKSANAALAIEKLEQLKAQEPSNTAVDKKLAEIYYLKNDFSKAAEAYSRFAMGPTATEEDLVKYAFALFLNHDFEKSLEVANMGLKKNARHAAFNRLAMYNYTDLKRFDEAIKAADAFFTESDKADYSYLDYMYYGHLLEALKKYDEAVGQYEKAIQLDPTKTDLYKNISSAYEQKNDYKKAISAYQKYYTSLDKEHQTPDLQFQFGRLYYGAGTQTDSLTINAEERKQALMAADSVFHSIAEAAPDSYLGNFWRARANSALDPETTLGLAKPFYEEVATLLESKNDPHYNSALIECYSYLGYYYLLAIENPALKAEAMANKEKSKEYWSKILAIDSTNATAKRALDGIK”, the protein production result is “failed”.

On to “MRITHLGHSCILVEAAGQRILVDPGNLSRSWRGLTDLDAILVTHRHPDHVDPEHIGALVDANSGAVVRAEEGACHEIPALDADPVAPGDVLQIGEVRIEAVGGRHAVIHRDLEPIGNVGYLIGEGLGTILYHPGDELDETPRGVDVLACPAHAPWAAMKETVDFARSVGARHGFLIHEGLLNGRGWQLSFDRHQEMVPTTFHDLRNGQPWEVPQDLEHHHHHH”, for which the protein production entry is “failed”.

“DFNPEIFQLESYFKSKYHLKDIEIVSSRKDSDTSEIEKDLAHVAAAMIRKKIKENDKVGIAWGRTLSKVVEAMRPHPVSQVSFVPLAGGPSHINARYHVNTLVYEMSRRFQGSCTFINATLVQENANLAKGILTSKYFEGLMDNWEKLDVAIVGVGGKPKSNEQQWLDLLNQDDFQCLDEEAAVGEITCRFFNHSGDPVNQHLAKRTIGITLEQLQKVPNRIAVAHGNYKAAALLAVLKKGYINHLVTDFSTALNILRLDKDTFVDTIYQKS”: the protein production result is on record as “failed”.

“LAAESQADYLGFIFAESKRKVSPEDVKKWLNQVRVEKQVAGVFVNESIETMSRIAKSLKLDVIQLHGDEKPADVAALRKLTGCEIWKALHHQDNTTQEIARFKDNVDGFVIDSSVKGSRGGTGVAFSWDCVPEYQQAAIGKRCFIAGGVNPDSITRLLKWQPEGIDLASGIEKNGQKDQNLMRLLEERMNRYVSISE”: the protein production result was “failed”.

As to “SLENLATAPVNQIQETISDNCVVIFSKTSCSYCTMAKKLFHDMNVNYKVVELDLLEYGNQFQDALYKMTGERTVPRIFVNGTFIGGATDTHRLHKEGKLLPLVHQCYLKKSKRKEFQ”, the protein production entry is recorded as “not failed”.

As to “MKVIGINGSPRRAGNTSIMLKTIFEVLEDEGIETELIQVGGTNIKGCRACYACIKNKNSECSTKGDGFNEIFAKMVEADGMILGSPTYFADITPELKALIDRAGFVSRTNGQLFRHKVGASVVSLRRGGGIHAYDSINHLFQICQMFMVGSTYWNLGFGGRDGGEVVNDTEGMENMRDLGHSMAFLLKKLHNLEHHHHHH”, the protein production result was “not failed”.

Regarding “MDKPALPIYLVVHFSYGDVTFPLQGRSYWTVGRSQDNDLVIRDNCISRNHAILQATEEDTFLLIDLGSRNGTFVNGRRVSVPIAIQDQDKITFGKTEAQFYSDQNGTPSGLLRNPAEWDTQTNVLHERRLITVLVADMRNFTGMAQQVEEELLSMLIGNWFRQAGHILREAGSWVDKYIGDAVMAIWFHGYNEATPAEIIQILHAVNRLQAMTAKLNQKYELPFPLRIGTGINTGYAMVGNTGSGDHPDYTAIGDTVNAAFRLESATKQAHFDLAMSEKTFSYLQDLPQWSATVQQHTIELKGYTNPITIYGLPFATLGTLLDHTSLEDTTPASEGP”, the protein production entry is “failed”.
